Target: GFP-tagged tomosyn1 (GFP-Tomosyn1), wild type (rat) (UniProt Q9WU70)
Assay: co-IP; GFP antiserum and protein G agarose, overnight, 300 ug extract of INS 832/13 cells expressing GFP-tomosyn1 constructs; lysis buffer with 1% Triton X-100, 150 mM NaCl, 25 mM N-ethylmaleimide; blot; cells in regular media or treated with 10 mM glucose or 30 mM KCl (15 min) in KRB

Sequence of UniProt Q9WU70 (Q9WU70 whole entry): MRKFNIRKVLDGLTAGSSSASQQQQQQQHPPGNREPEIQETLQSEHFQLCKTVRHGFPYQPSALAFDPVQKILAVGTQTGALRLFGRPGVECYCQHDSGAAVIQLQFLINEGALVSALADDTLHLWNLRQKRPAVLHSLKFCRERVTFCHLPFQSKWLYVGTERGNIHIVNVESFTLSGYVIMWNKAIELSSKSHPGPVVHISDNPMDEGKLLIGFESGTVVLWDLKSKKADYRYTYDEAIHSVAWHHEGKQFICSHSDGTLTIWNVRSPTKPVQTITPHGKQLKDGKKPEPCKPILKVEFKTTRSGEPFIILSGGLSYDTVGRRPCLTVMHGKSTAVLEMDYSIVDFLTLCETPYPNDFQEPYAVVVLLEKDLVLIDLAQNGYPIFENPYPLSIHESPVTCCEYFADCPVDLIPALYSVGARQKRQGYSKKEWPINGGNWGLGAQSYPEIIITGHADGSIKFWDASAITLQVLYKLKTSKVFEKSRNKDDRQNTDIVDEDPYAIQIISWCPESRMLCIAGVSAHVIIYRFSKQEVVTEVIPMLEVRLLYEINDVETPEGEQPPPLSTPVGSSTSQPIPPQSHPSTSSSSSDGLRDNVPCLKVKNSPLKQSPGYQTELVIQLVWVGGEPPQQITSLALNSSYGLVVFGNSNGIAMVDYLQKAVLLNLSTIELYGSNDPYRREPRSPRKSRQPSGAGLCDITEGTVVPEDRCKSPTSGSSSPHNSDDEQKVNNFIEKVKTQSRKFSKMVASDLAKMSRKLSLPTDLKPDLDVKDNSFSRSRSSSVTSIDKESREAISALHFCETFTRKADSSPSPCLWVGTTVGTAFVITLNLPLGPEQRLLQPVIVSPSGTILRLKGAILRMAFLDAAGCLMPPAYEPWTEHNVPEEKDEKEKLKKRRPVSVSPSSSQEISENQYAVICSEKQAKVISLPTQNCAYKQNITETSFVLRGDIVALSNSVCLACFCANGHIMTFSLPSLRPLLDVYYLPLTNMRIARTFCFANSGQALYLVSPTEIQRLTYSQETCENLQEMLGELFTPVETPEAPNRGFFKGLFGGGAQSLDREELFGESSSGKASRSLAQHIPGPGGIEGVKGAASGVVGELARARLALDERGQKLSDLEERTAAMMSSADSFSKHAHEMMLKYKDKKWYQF

- percent decrease of the interaction after KCl stimulation: 65.3%
- percent decrease of the interaction after glucose stimulation: 44.6%
B1: secretagogin (INS 832/13 cells) (natural protein)
chain: MDNAHRQTQAHLDAACFWQIWQRFDKDEKGYIKETELDAFFDDLLAKFGIEDTLMEENVQKMKEQLMVGHDISKEGRILMKELASMFLSEDENFLLFFRLETPLDNSVEFMQIWRKYDADSSGFISAAELSNFLRDLFLHHKKVISEAELEEYTSTMEKIFDRNKDGRLDLNDLARILALQENFLLQFKMDASSTEERKRDFEKIFAHYDVSKTGALEGPEVDGFVKDMMELVQPSISGVDLDKFREILLRHCDVNKDGKIQKSELALCLGLKINP
